In paper PMC4392985:

Target: LlaKI restriction endonuclease (Lactococcus lactis KLDS4 (endogenous))
Assay: SEC; Sephadex G-200 10/30 column, buffer B-100 (10 mM Tris-HCl pH 7.5, 1 mM EDTA, 10 mM 2-Mercaptoethanol, 100 mM NaCl), 0.5 mL/min; calibrated with protein standards; LlaKI found by assay of cleavage activity of the fractions; native about 112 kDa against 50 kDa denatured

## LlaKI restriction endonuclease (enzyme)
  stoichiometry N: 2
